# Test results published in paper PMC9214244, “Multivalent Interaction of Beta-Catenin With its Intrinsically Disordered Binding Partner Adenomatous Polyposis Coli” (Frontiers in Molecular Biosciences, 2022).
# Where no end group is shown, it is not given here.
# T1: armadillo (ARM) repeat domain of human β-catenin (residues 134–671) (human, UniProt P35222 134-671)
# T1 construct: two residues left at the N-terminus after thrombin cleavage of GST; β-catenin, human, armadillo repeat domain, residues 134-671; plasmid a gift from W. I. Weis; source: E. coli C41, purified (glutathione-Sepharose, thrombin cleavage on the resin, Mono-Q); not shown: GST, N-terminal, cleaved
# T1 sequence: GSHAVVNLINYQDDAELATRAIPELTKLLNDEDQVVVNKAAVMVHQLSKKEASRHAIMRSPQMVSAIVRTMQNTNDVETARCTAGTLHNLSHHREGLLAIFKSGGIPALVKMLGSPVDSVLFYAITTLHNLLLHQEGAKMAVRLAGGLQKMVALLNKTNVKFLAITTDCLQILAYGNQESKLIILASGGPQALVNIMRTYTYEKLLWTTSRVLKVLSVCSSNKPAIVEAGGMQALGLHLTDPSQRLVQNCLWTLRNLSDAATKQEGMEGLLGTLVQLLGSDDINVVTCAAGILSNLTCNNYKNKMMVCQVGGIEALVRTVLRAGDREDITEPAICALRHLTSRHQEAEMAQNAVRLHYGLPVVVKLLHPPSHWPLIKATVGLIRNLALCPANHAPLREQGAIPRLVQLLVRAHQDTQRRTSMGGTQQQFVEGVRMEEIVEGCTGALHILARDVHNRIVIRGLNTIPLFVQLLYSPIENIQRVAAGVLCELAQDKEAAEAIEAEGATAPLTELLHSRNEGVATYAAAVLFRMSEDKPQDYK
# Assays:
# [1] = biological target: armadillo (ARM) repeat domain of human β-catenin (residues 134–671) (human) (UniProt P35222); assay: other fluorescence titration; competition: 20 nM Alexa-488-APCbc and 200 nM β-catenin incubated 30 min, then unlabelled APCbc variants titrated; PBS, 1 mM DTT; 25°C
# [2] = biological target: T1, armadillo (ARM) repeat domain of human …; assay: fluorescence polarisation; fluorescence anisotropy; β-catenin titrated into 10 nM fluorescein-labelled APC construct; PBS, 1 mM DTT; 15°C; adjusted anisotropy fitted to a Hill equation; conditions: both partners purified
# [3] = biological target: T1, armadillo (ARM) repeat domain of human …; assay: as above; conditions: both partners purified; remark: listed apart in the source
# [4] = biological target: T1, armadillo (ARM) repeat domain of human …; assay: stopped-flow fluorescence; association: 25 nM fluorescein-labelled APC mixed 1:1 by volume with 250-2,000 nM β-catenin (pseudo first-order); dissociation: pre-formed 1:1 complex (200 nM) mixed with 10 times molar excess of the same APC construct; PBS, 1 mM DTT; 15°C; conditions: both partners purified
fold increase in affinity (IC50) against APCbc [1],Kd [3],Molecule,also measured
30 fold,,"APCbc S1507E (S3), unlabelled (from UniProt P25054 1483-1533) (domain or fragment)",
,2.05 µM,"APCabc D1486S, fluorescein-labelled at Cys 1501 (domain or fragment) SGPKQAAVNAAVQRVQVLPDASTLLHFATESTPDGFSC(fluorescein‑maleimide)SSSLSALSLDEPFIQKDVELRIMPPVQEND",

# Continued, molecule first:
Molecule,fold increase in affinity (IC50) against APCbc [1],Kd [3],also measured
"APCbc S1505E (S2), unlabelled (from UniProt P25054 1483-1533) (domain or fragment)",5 fold,,
"APC R3 construct with E1494T (domain or fragment, not fully specified) SGPKQAAVNAAVQRVQVLPDADTLLHFATTSTPDGFSC(fluorescein‑maleimide)SSSLSALSLDEPFIQKDVELRIMPPVQEND",,,Kd [2]: > 5 µM
"GSPDADTLLHFATESTPDGFSC(fluorescein‑maleimide) (domain or fragment, two residues left at the N-terminus after thrombin cleavage of GST; adenomatous polyposis coli (APC), R3 region, subdomain b, residues 1483-1502; source: E. coli C41, purified (glutathione-Sepharose, thrombin cleavage on the resin, differential filtration); not shown: GST, N-terminal, cleaved) [APCb, lysine-binding domain b of APC R3, fluorescein-labelled at Cys 1501]",,0.246 µM,
"GSSGPKQAAVNAAVQRVQVLPDADTLLHFATESTPDGFSC(fluorescein‑maleimide) (domain or fragment, two residues left at the N-terminus after thrombin cleavage of GST; adenomatous polyposis coli (APC), R3 region, subdomains a (1465-1483) and b (1483-1502); source: E. coli C41, purified (glutathione-Sepharose, thrombin cleavage on the resin, differential filtration); not shown: GST, N-terminal, cleaved) [APCab, APC R3 subdomains a and b, fluorescein-labelled at Cys 1501]",,0.0899 µM,kon [4]: 1.33e+07 M⁻¹ s⁻¹
